Data as given in the supplement of paper PMC9732359.
± gives the uncertainty stated by the source.

Assay: protein stability index of a GFP-peptide fusion (yeast GPS) (PSI 1-4); higher = more stable; sorted into four equal gates, so the index is relative within each strain
Conditions: san1∆
In short: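 Tiled yeast protein peptides of 17 residues were each joined downstream of GFP, on plasmids that also express Cherry. The pooled library was maintained in yeast, and mid-log cultures in leucine-free medium were sorted into four equal gates on the GFP/Cherry ratio. Plasmids from every gate were amplified by PCR and sequenced on Illumina, with barcodes linking reads to strains. The protein stability index of a peptide is its gate-number-weighted read frequency summed over the gates.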

| Sequence | protein stability index |
| --- | --- |
| DPSMDPELAMALRLSME [RPN10] | 3.28 ± 0.068 |
| DQCKKQRRCLHCGALNG [RPO31] | 2.4 ± 0.11 |
| DQEIVIQQLHSVLNPFL [ISW2] | 1.98 ± 0.056 |
| DQITKMKDRLVEWNDQV [RPN9] | 3.43 ± 0.079 |
| DQLDSEAASITRKSLNN [ECM29] | 3.04 ± 0.064 |
| DQPQSSEAKRTKFSNPA [BRR2] | 3.24 ± 0.086 |
| DQTNHIESDSILNLLNI [ECM29] | 2.99 ± 0.077 |
| DRAQNSYQPMYQRPMQV [SSN3] | 1.55 ± 0.16 |
| DRGLSIKLNGSTLLCTD [SNU114] | 2.34 ± 0.092 |
| DRIIHTWRTQLAASEIG [ECM29] | 1.65 ± 0.062 |
| DRKIQGWLGALTMANLP [ARP7] | 2.65 ± 0.069 |
| DRRAQRVAEKRDALLKE [RPL19A] | 3.07 ± 0.15 |
| DRVQQDSEDEDSMKDTT [YML031W/NDC1] | 3.26 ± 0.091 |
| DSAKEWPQSKNCEYEDP [RPB3] | 3.27 ± 0.14 |
| DSEIEISSEKLLTLTNA [RPP1A] | 2.93 ± 0.061 |
| DSHKRIPDMSKNVELGW [SNU114] | 2.79 ± 0.13 |
| DSIDLAPNTLTNILISP [YML103C/NUP188] | 1.55 ± 0.15 |
| DSIPRDVAYLLKSESAT [YGL172W/NUP49] | 2.91 ± 0.05 |
| DSLKLNSKPVELKPVSL [YJL041W/NSP1] | 2.49 ± 0.097 |
| DSLSVPKVSAGDSGISP [SIR4] | 3.02 ± 0.084 |
| DSTIGNSKVDMKYDIFA [IRR1] | 2.71 ± 0.078 |
| DSTLILEQLAQHTTESD [RPB2] | 2.46 ± 0.072 |
| DTAGEESQQQDESLKDE [SWI3] | 3.13 ± 0.16 |
| DTDNECVAAWGVCNHAF [HRT1] | 3.33 ± 0.054 |
| DTDSKPSSQSQNDTPMF [YLR018C/POM34] | 3 ± 0.039 |

| Sequence | protein stability index |
| --- | --- |
| DTIATSATPNAAAFSQQ [GAL11] | 2.76 ± 0.055 |
| DTLDSKSNGSSDDDNIG [ISW2] | 3.11 ± 0.057 |
| DTRITPSKVSKIDSHVV [PRE6] | 2.46 ± 0.14 |
| DTTFSDFKEVEDFLHFI [SRB4] | 2.23 ± 0.064 |
| DVCKTRFNHLVTRLFFI [YML031W/NDC1] | 1.52 ± 0.072 |
| DVEVDDDFTNELKAELD [SEM1] | 3.54 ± 0.085 |
| DVKFPSNTTTQIQFTPL [SMC3] | 2.98 ± 0.14 |
| DVKKPFSFGTSQPNNTP [YLR335W/NUP2] | 2.5 ± 0.12 |
| DVLKSQANTEPENITKR [MCD1] | 2.98 ± 0.057 |
| DVNIIGKDRIAINVFPE [RPO31] | 2.88 ± 0.098 |
| DVNTNANANANATANAT [SNF11] | 3.23 ± 0.045 |
| DVQARRQFVSNVRSVIR [RPP1] | 1.65 ± 0.23 |
| DVVYALKRQGRTLYGFG [HHF1] | 2.34 ± 0.14 |
| DVYNRELDEHTTQIDLF [BRR2] | 2.9 ± 0.046 |
| DWIRFVSTKTNEYRLAF [RPL22A] | 2.75 ± 0.064 |
| DYITEAVFKIVLQPLLP [SNU114] | 1.38 ± 0.089 |
| DYLKNIIVENSGTSGDE [RPN2] | 3.14 ± 0.057 |
| DYNDVEVNSKKKNKRAL [BRR2] | 2.78 ± 0.12 |
| DYPFTQLGYIENSFYKK [POP1] | 2.98 ± 0.1 |
| DYQVQGLNWLISLHENK [ISW2] | 1.64 ± 0.078 |
| DYVNKTNSHLPAGKQVE [FAS1] | 3.08 ± 0.13 |
| EAAKPSLSFGSGSAGAN [YJL041W/NSP1] | 3.02 ± 0.13 |
| EAEIECFDSTTGRDAGF [RRP40] | 3.28 ± 0.095 |
| EAESQLRAAQQQWGNDF [FAS2] | 3.07 ± 0.072 |
| EAKERYTDRDQDEVNKG [NNF1] | 3.3 ± 0.22 |

| Sequence | protein stability index |
| --- | --- |
| EAPAGNIDTITDAMTES [MCD1] | 2.96 ± 0.072 |
| EASNTPIEHQFNPYGDN [PRE7] | 3.54 ± 0.091 |
| EATAASHERFFLSQGLH [CSN12] | 1.09 ± 0.24 |
| EATLESKLKEEEAALLI [ESC2] | 2.88 ± 0.038 |
| EATLLTNSNNGSSNNNT [SNF5] | 3.14 ± 0.1 |
| EAVELVIGLDSEHDKKR [YML103C/NUP188] | 3.16 ± 0.18 |
| EDALYLGKRSILAAAHR [PRE2] | 3.16 ± 0.067 |
| EDFDVEHFSDEETYEEK [RPO26] | 3.19 ± 0.22 |
| EDGMIIDVNLNFARQLL [RRP40] | 3.26 ± 0.079 |
| EDKFLYGDGNGKGDNDN [SWI3] | 3.4 ± 0.08 |
| EDLFDDYPSTSLDIRHD [NUT1] | 3.09 ± 0.058 |
| EDLLHYIEEKHPTIYES [POP4] | 3.37 ± 0.077 |
| EDNGIVKALRNVPGVET [RPL4A] | 2.46 ± 0.11 |
| EDTPANDSSATRSWRPP [RPB8] | 2.47 ± 0.2 |
| EEAKEESDDDMGFGLFD [RPP1A] | 3.22 ± 0.028 |
| EEARRKHVSGKILGFVY [RPS22A] | 2.97 ± 0.16 |
| EEEEDTTTTANINEVKK [NUT1] | 3.09 ± 0.084 |
| EEEVTDQLEDLREHFKN [QCR6] | 3.26 ± 0.09 |
| EEISFSLSEGCDILVAT [PRP28] | 2.72 ± 0.071 |
| EELKNMFLYILKHLEEM [RRI2] | 1.32 ± 0.11 |
| EEQKSSDTSKPAFTFGA [YJL041W/NSP1] | 2.89 ± 0.059 |
| EERSNNLLTPQPTNFTT [MCD1] | 2.91 ± 0.061 |
| EETDDEDKQNIEINEDN [RRI2] | 3.26 ± 0.045 |
| EEVVSNDEGVWDLVDER [PRP8] | 3.42 ± 0.07 |
| EEYKKSLYAYCHSKLRG [GRR1] | 2.42 ± 0.09 |

Same assay, conditions: ubr1∆

| Sequence | protein stability index |
| --- | --- |
| DPSMDPELAMALRLSME [RPN10] | 2.96 ± 0.054 |
